What was measured:
[1] = tested on: EAE in Lewis rats; assay: Treatment of ongoing EAE after disease onset; type: in vivo
[2] = tested on: BN-GP T cells; assay: IFNβ anti-proliferative activity in IL-2 stimulated cultures of BN-GP T cells; type: cell-based, rat; conditions: for Biological activity of IFNβ in expression supernatants: transient transfection of HEK293 cells
Description: FIG. 1. The IFNβ-NAg his-tagged fusion protein was biologically active and was purified on nickel resins. (A) To assess whether IFNβ-NAg induced class I MHC expression, thymocytes (5×10^6/ml in complete RPMI) were cultured with or without IFNβ-NAg for 2 days and then were stained with B5 (anti-MHC-I), OX18 (anti-MHC-I), R73 (anti-TCRβ), or OX81 (anti-IL4; isotype control) and were analyzed by flow cytometry. (B) To assess IFNβ-mediated anti-proliferative activity, supernatants from two independently derived IFNβ-NAg expression systems as well as supernatants from several control expression systems were added at designated titrations (x-axis) to IL-2 stimulated cultures of BN-GP T cells. (C) To assess the specificity of anti-proliferative activity, baculovirus supernatants containing IFNβ-NAg were added at designated titrations to cultures of rat (R1T, BN-GP, RsL.11T, RsL.11, or Conal.8D9) or mouse (CTLL) T cells. Proliferative assays (B & C) were pulsed with [^3H]thymidine on the second day of a 3-day culture. (D) Shown is a representative SDS-PAGE analysis of purified IFNβ-NAg.
FIG. 2. Structure-function analysis of the cytokine and NAg domains of IFNβ fusion proteins. (A) Expression supernatants containing designated IFNβ fusion proteins (see Table 2) were added to cultures of BN-GP T cells at designated titrations (x-axis). (B) The IFNβ-EK-NAg-6his or IFNβ-EK-6his fusion genes were inserted into the pCEP4 expression vector (Invitrogen). Inserts were verified by DNA sequencing, and the genes were expressed by transient transfection of HEK293 cells. Independently derived expression systems of IFNβ-EK-NAg-6his or IFNβ-EK-6his (3 each) were compared in the BN-GP T cell anti-proliferative assay. (C) Independently purified preparations (2 each) of each IFN-β fusion protein (IFNβ-NAg from HEK293 cells, IFNβ-NAg from baculovirus, and IFN-β from HEK293 cells) were added at designated concentrations to assess anti-proliferative activity. Two independently purified preparations of the same fusion protein were tested to verify the reliability of activity for each type of protein. The x-axis was based on the exponent of the molar concentration. For example, a concentration of 100 nM was represented as Log [10^−7]=Log10) (10^−7M)=−7 and was plotted by the exponent of −7. For these experiments (A-C), BN-GP T cells were cultured in IL-2. (D) The MBP-specific RsL.11 T cell clone and irradiated splenic APC were cultured with designated concentrations of purified IFNβ-NAg or GPMBP in the presence or absence of the OX6 anti-MHC-II mAb. (E) Five preparations of purified IFNβ-NAg and six preparations of purified IFN-β were tested for antigenic activity in cultures of RsL.11 T cells and irradiated splenic APC.
The RsL.11 MBP-specific clone was a stable, IL-2 dependent line derived from Lewis rats sensitized with rat MBP in CFA (Mannie, M. D., and M. S. Norris. 2001. MHC class-II-restricted antigen presentation by myelin basic protein-specific CD4+ T cells causes prolonged desensitization and outgrowth of CD4-responders. Cell Immunol 212:51-62). The RsL.11T clone was a transformed variant of the RsL.11 clone. […]

[3] = Table 6 Experiment 1, s.c. day 9 (1 nmole), day 10 (1 nmole), day 12 (0.5 nmole) after DHFR-NAg in CFA day 0
[4] = Table 6 Experiment 2, 1 nmole s.c. on days 9, 10, 12, and 14 after DHFR-NAg in CFA day 0
[5] = Table 6 Experiments 1 & 2 compiled, treatment from day 9 after onset
[6] = Table 7 Experiment 2, 1 nmole s.c. days 9, 10, 12, and 14, severe EAE = scores from 1.0 to 3.0
[7] = Table 7 Experiment 2, 1 nmole s.c. in saline days 9, 10, 12, and 14, IFNβ + NAg as mixture
[8] = Table 7 Experiment 3, 1 nmole s.c. days 9, 10, and 12, severe EAE = scores from 1.0 to 3.0
[9] = Table 7 Experiment 3, 1 nmole s.c. in saline days 9, 10, and 12, IFNβ + NAg as mixture
[10] = Table 7 Experiments 1-3 compiled, 1 nmole s.c. after onset
[11] = Table 7 Experiments 1-3 compiled, severe EAE = scores from 1.0 to 3.0
[12] = Table 7 Experiment 1, 1 nmole s.c. days 10, 11, and 13, severe EAE = scores from 1.0 to 3.0
[13] = Table 7 Experiment 1, 1 nmole s.c. in saline days 10, 11, and 13, IFNβ + NAg as mixture

B1: IFNβ: Rat interferon beta cytokine with enterokinase linker and 6-histidine sequence, no neuroantigen (protein)
chain: IDYKQLQFRQSTSIRTCQKLLRQLNGRLNLSYRTDFKIPMEVMHPSQMEKSYTAFAIQVMLQNVFLVFRSNFSSTGWNETIVESLLDELHQQTELLEIILKEKQEERLTWVTSTTTLGLKSYYWRVQRYLKDKKYNSYAWMVVRAEVFRNFSIILRLNRNFQNGDDDDKGHHHHHH
In the case of B1, the “% mean maximal weight loss” value [1, 3] is reported as 10.6 ± 5.3%, the “Incidence of severe EAE” value [1, 3] is reported as 5 of 6 and the “Mean # days with severe EAE” value [1, 3] is reported as 1.4 ± 1.1 days. It also gave a Mean cum. score [1, 3] of 11.1 ± 5.1, a Mean maximal score [1, 3] of 2.2 ± 0.8 and a Median cum. score [1, 3] of 10.3. For the same molecule, the Median maximal score [1, 3] was 2.0, the “% mean maximal weight loss” value [1, 4] was 20.7 ± 1.9% and the “Incidence of severe EAE” value [1, 4] was 3 of 5. For the same molecule, the “Mean # days with severe EAE” value [1, 4] was 1.3 ± 1.4 days, the Mean cum. score [1, 4] was 11.2 ± 5.9 and the Mean maximal score [1, 4] was 2.0 ± 1.0. For the same molecule, the Median cum. score [1, 4] was 8.3, the Median maximal score [1, 4] was 2.0 and the “% mean maximal weight loss” value [1, 5] was 15.2 ± 6.5%. The “Incidence of severe EAE” value [1, 5] was 8 of 11, the “Mean # days with severe EAE” value [1, 5] was 1.4 ± 1.2 days and the Mean cum. score [1, 5] was 11.1 ± 5.2. It also gave a Mean maximal score [1, 5] of 2.1 ± 0.8, a Median cum. score [1, 5] of 8.3 and a Median maximal score [1, 5] of 2.0. For the same molecule, the “Incidence of severe EAE” value [1, 6] was 6 of 6, the “Mean # days with severe EAE (A-P)” value [1, 6] was 1.9 ± 2.1 days and the Mean cum. score [1, 7] was 7.2 ± 3.8. For the same molecule, the Mean maximal score [1, 7] was 2.2 ± 1.0, the Median cum. score [1, 7] was 5.9 and the Median maximal score [1, 7] was 2.5. The “Incidence of severe EAE” value [1, 8] was 2 of 7, the “Mean # days with severe EAE (A-P)” value [1, 8] was 0.4 ± 0.6 days and the Mean cum. score [1, 9] was 3.1 ± 2.2. It also gave a Mean maximal score [1, 9] of 1.0 ± 1.1, a Median cum. score [1, 9] of 2.5 and a Median maximal score [1, 9] of 0.5. The Mean cum. score [1, 10] was 5.0 ± 3.6, the Mean maximal score [1, 10] was 1.5 ± 1.2 and the Median cum. score [1, 10] was 4.0. For the same molecule, the Median maximal score [1, 10] was 1.0, the “Incidence of severe EAE” value [1, 11] was 8 of 13 and the “Mean # days with severe EAE (A-P)” value [1, 11] was 1.1 ± 1.7 days. For the same molecule, the “course of EAE during treatment” value ([1]; treatment after onset, disease rebound after cessation on day 12 or day 14) was “initial suppression of EAE” and the “Biological activity of IFNβ in expression supernatants” value [2] was “Potent activity”.

B2: IFNβ-NAg: Fusion protein: rat IFNβ, enterokinase linker (GDDDDKG), encephalitogenic 73-87 peptide of guinea pig MBP, C-terminal 6-histidine tag (protein)
chain: IDYKQLQFRQSTSIRTCQKLLRQLNGRLNLSYRTDFKIPMEVMHPSQMEKSYTAFAIQVMLQNVFLVFRSNFSSTGWNETIVESLLDELHQQTELLEIILKEKQEERLTWVTSTTTLGLKSYYWRVQRYLKDKKYNSYAWMVVRAEVFRNFSIILRLNRNFQNGDDDDKGPQKSQRSQDENPVVHHHHHH
For B2, the “% mean maximal weight loss” value [1, 3] was 3.8 ± 2.0%, the “Incidence of severe EAE” value [1, 3] was 1 of 6 and the “Mean # days with severe EAE” value [1, 3] was 0.1 ± 0.2 days. It also gave a Mean cum. score [1, 3] of 3.4 ± 2.1, a Mean maximal score [1, 3] of 0.7 ± 0.6 and a Median cum. score [1, 3] of 3.5. For the same molecule, the Median maximal score [1, 3] was 0.5, the “% mean maximal weight loss” value [1, 4] was 6.4 ± 5.0% and the “Incidence of severe EAE” value [1, 4] was 1 of 5. For the same molecule, the “Mean # days with severe EAE” value [1, 4] was 0.1 ± 0.2 days, the Mean cum. score [1, 4] was 2.7 ± 1.5 and the Mean maximal score [1, 4] was 0.7 ± 0.8. For the same molecule, the Median cum. score [1, 4] was 2.3, the Median maximal score [1, 4] was 0.3 and the “% mean maximal weight loss” value [1, 5] was 5.0 ± 3.7%. The “Incidence of severe EAE” value [1, 5] was 2 of 11, the “Mean # days with severe EAE” value [1, 5] was 0.1 ± 0.2 days and the Mean cum. score [1, 5] was 3.1 ± 1.8. For the same molecule, the Mean maximal score [1, 5] was 0.7 ± 0.7, the Median cum. score [1, 5] was 2.8 and the Median maximal score [1, 5] was 0.5. The “Incidence of severe EAE” value [1, 12] was 0 of 5, the “Mean # days with severe EAE (A-P)” value [1, 12] was 0.3 ± 0.7 days and the Mean cum. score [1, 13] was 1.7 ± 0.9. It also gave a Mean maximal score [1, 13] of 0.4 ± 0.1, a Median cum. score [1, 13] of 1.8 and a Median maximal score [1, 13] of 0.3. For the same molecule, the “Incidence of severe EAE” value [1, 6] was 1 of 6, the “Mean # days with severe EAE (A-P)” value [1, 6] was 0.1 ± 0.2 days and the Mean cum. score [1, 7] was 1.0 ± 0.7. It also gave a Mean maximal score [1, 7] of 0.6 ± 0.7, a Median cum. score [1, 7] of 0.8 and a Median maximal score [1, 7] of 0.4. For the same molecule, the “Incidence of severe EAE” value [1, 8] was 0 of 7, the “Mean # days with severe EAE (A-P)” value [1, 8] was 0.0 ± 0.0 days and the Mean cum. score [1, 9] was 1.7 ± 0.6. The Mean maximal score [1, 9] was 0.4 ± 0.1, the Median cum. score [1, 9] was 1.8 and the Median maximal score [1, 9] was 0.3. It also gave a Mean cum. score [1, 10] of 1.4 ± 0.8, a Mean maximal score [1, 10] of 0.4 ± 0.4 and a Median cum. score [1, 10] of 1.4. For the same molecule, the Median maximal score [1, 10] was 0.3, the “Incidence of severe EAE” value [1, 11] was 1 of 18 and the “Mean # days with severe EAE (A-P)” value [1, 11] was 0.1 ± 0.4 days. The “EAE-associated weight loss, mean” value ([1]; experiment 1 of Table 7) was 9.7%, the “EAE-associated weight loss, mean” value ([1]; experiment 2 of Table 7) was 8.7% and the “EAE-associated weight loss, mean” value ([1]; experiment 3 of Table 7) was 8.5%. The “Biological activity of IFNβ in expression supernatants” value [2] was “Potent activity” and the “cytokine activity relative to HEK293-derived protein” value ([2]; protein purified from baculovirus expression supernatants) was “less active”.
